In publication doi:10.1101/2022.11.10.515920 (bioRxiv, 2022):

B1: glucose oxidase expressed in BY-2 lysate (enzyme)
chain: LPHYIRSNGIEASLLTDPKDVSGRTVDYIIAGGGLTGLTTAARLTENPNISVLVIESGSYESDRGPIIEDLNAYGDIFGSSVDHAYETVELATNNQTALIRSGNGLGGSTLVNGGTWTRPHKAQVDSWETVFGNEGWNWDNVAAYSLQAERARAPNAKQIAAGHYFNASCHGVNGTVHAGPRDTGDDYSPIVKALMSAVEDRGVPTKKDFGCGDPHGVSMFPNTLHEDQVRSDAAREWLLPNYQRPNLQVLTGQYVGKVLLSQNGTTPRAVGVEFGTHKGNTHNVYAKHEVLLAAGSAVSPTILEYSGIGMKSILEPLGIDTVVDLPVGLNLQDQTTATVRSRITSAGAGQGQAAWFATFNETFGDYSEKAHELLNTKLEQWAEEAVARGGFHNTTALLIQYENYRDWIVNHNVAYSELFLDTAGVASFDVWDLLPFTRGYVHILDKDPYLHHFAYDPQYFLNELDLLGQAAATQLARNISNSGAMQTYFAGETIPGDNLAYDADLSAWTEYIPYHFRPNYHGVGTCSMMPKEMGGVVDNAARVYGVQGLRVIDGSIPPTQMSSHVMTVFYAMALKISDAILEDYASMQ
B2: glucose oxidase, commercial standard purified from Aspergillus niger (enzyme)
chain: LPHYIRSNGIEASLLTDPKDVSGRTVDYIIAGGGLTGLTTAARLTENPNISVLVIESGSYESDRGPIIEDLNAYGDIFGSSVDHAYETVELATNNQTALIRSGNGLGGSTLVNGGTWTRPHKAQVDSWETVFGNEGWNWDNVAAYSLQAERARAPNAKQIAAGHYFNASCHGVNGTVHAGPRDTGDDYSPIVKALMSAVEDRGVPTKKDFGCGDPHGVSMFPNTLHEDQVRSDAAREWLLPNYQRPNLQVLTGQYVGKVLLSQNGTTPRAVGVEFGTHKGNTHNVYAKHEVLLAAGSAVSPTILEYSGIGMKSILEPLGIDTVVDLPVGLNLQDQTTATVRSRITSAGAGQGQAAWFATFNETFGDYSEKAHELLNTKLEQWAEEAVARGGFHNTTALLIQYENYRDWIVNHNVAYSELFLDTAGVASFDVWDLLPFTRGYVHILDKDPYLHHFAYDPQYFLNELDLLGQAAATQLARNISNSGAMQTYFAGETIPGDNLAYDADLSAWTEYIPYHFRPNYHGVGTCSMMPKEMGGVVDNAARVYGVQGLRVIDGSIPPTQMSSHVMTVFYAMALKISDAILEDYASMQ

Target: the molecule itself
Assay: SEC

Protein | stoichiometry N
B1 | 2
B2 | 2
